From patent US20060240053

Substance	autocleavage in acetate buffer pH 4.5, SDS-PAGE over time
GST-SASPase C27 mutant A/D (aspartic acid No. 212 substituted to alanine)	The mutated forms (A/D) and (E/D), for their part, do not autoactivate
GST-SASPase C27 mutant E/D (aspartic acid No. 212 substituted to glutamic acid)	The mutated forms (A/D) and (E/D), for their part, do not autoactivate
